B7: B7 antigen (B7-1, CD80) expressed on cells (ligand, human, UniProt P33681 35-288, looked up)
chain: VIHVTKEVKEVATLSCGHNVSVEELAQTRIYWQKEKKMVLTMMSGDMNIWPEYKNRTIFDITNNLSIVILALRPSDEGTYECVVLKYEKDAFKREHLAEVTLSVKADFPTPSISDFEIPTSNIRRIICSTSGGFPEPHLSWLENGEELNAINTTVSQDPETELYAVSSKLDFNMTTNHSFMCLIKYGHLRVNQTFNWNTTKQEHFPDNLLPSWAITLISVNGIFVICCLTYCFAPRCRERRRNERLRRESVRPV
notes: whole, on cells; Stably transfected CHO cells; in the MLR and IgM assays the B7 antigen of the stimulating B cells; also called B7^+ CHO cells; B7-1 positive CHO cells

Assay [1] concerns the target B7. Kind of assay: B7-1+ CHO cell enzyme immunoassay; binding activity relative to CTLA4Ig, from the concentrations giving the same A450.
Assay [2] addresses T1, CD5Ig (human, UniProt P06127 25-371; P01857 99-330 = IgG part).
T1 construct: range 1-347;domain: hinge, CH2 and CH3 regions; Control fusion protein; also called control CD5Ig fusion protein
Kind of assay: indirect immunofluorescence, FACS, transfected COS cells, FITC anti-mouse and anti-human Ig second step.
Protocol: Immunostaining and FACS^R Analysis. Prior to staining, COS or CHO cells were removed from their culture vessels by incubation in PBS containing 10 mM EDTA. Cells were first incubated with mAbs or Ig fusion proteins at 10 micro grams/ml in DMEM containing 10% FBS for 1–2 hr at 4 degrees C. Cells were then washed, and incubated for an additional 0.5–2 hrs at 4 degrees C. with FITC-conjugated goat anti-mouse immunoglobulin or with FITC-conjugated goat anti-human IgCγ serum (both from Tago, Burlingame, Calif.). When binding of both mAbs and Ig fusion proteins were measured in the same experiment, FITC-conjugated anti-mouse and anti-human second step reagents were mixed together before use. Fluorescence on a total of 10,000 cells was then analyzed by FACS^R.
Cells were then washed and binding was detected by a mixture of FITC-conjugated goat anti-mouse Ig and FITC-conjugated goat anti-human Ig second step reagents. Transfected cells were tested for expression of the appropriate cell surface markers by indirect immunostaining and fluorescence was measured using FACS^R analysis as described above.

Assay [3] concerns the target B7. Briefly: enzyme immunoassay on fixed B7-1+ CHO cells.
The target of assay [4] is T1, CD5Ig. Kind of assay: indirect immunofluorescence, FACS, FITC goat anti-human Ig second step.
Protocol: Prior to staining, COS or CHO cells were removed from their culture vessels by incubation in PBS containing 10 mM EDTA. Cells were first incubated with mAbs or Ig fusion proteins at 10 micro grams/ml in DMEM containing 10% FBS for 1–2 hr at 4 degrees C. Cells were then washed, and incubated for an additional 0.5–2 hrs at 4 degrees C. with FITC-conjugated goat anti-mouse immunoglobulin or with FITC-conjugated goat anti-human IgCγ serum (both from Tago, Burlingame, Calif.). When binding of both mAbs and Ig fusion proteins were measured in the same experiment, FITC-conjugated anti-mouse and anti-human second step reagents were mixed together before use. Fluorescence on a total of 10,000 cells was then analyzed by FACS^R.
Binding was detected by FACS^R following addition of FITC-conjugated goat anti-human Ig second step reagents. A total of 10,000 stained cells were analyzed by FACS^R.

T1 sequence (P06127 other isoform, or with tags, fused parts or gaps limits assumed): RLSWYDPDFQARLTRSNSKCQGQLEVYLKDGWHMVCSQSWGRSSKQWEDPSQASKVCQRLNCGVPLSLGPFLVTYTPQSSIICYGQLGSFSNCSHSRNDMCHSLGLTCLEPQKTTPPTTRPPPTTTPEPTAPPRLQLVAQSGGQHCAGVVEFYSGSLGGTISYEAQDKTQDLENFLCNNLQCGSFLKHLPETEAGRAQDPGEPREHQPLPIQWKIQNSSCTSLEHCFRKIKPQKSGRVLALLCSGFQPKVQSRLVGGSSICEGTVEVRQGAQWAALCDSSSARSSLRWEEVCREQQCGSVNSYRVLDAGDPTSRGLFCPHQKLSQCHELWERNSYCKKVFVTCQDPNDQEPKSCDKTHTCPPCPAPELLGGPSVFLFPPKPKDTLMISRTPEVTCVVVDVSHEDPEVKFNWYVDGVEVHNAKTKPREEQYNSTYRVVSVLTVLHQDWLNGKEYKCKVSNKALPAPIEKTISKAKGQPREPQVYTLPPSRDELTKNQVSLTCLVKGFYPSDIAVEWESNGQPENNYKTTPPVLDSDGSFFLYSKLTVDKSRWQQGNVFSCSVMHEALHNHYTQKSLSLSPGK

B1: CTLA4/CD28Ig hybrid fusion protein HS3 (Fc fusion, not shown: a dimerising Fc or GST)
chain: MHVAQPAVVLASSRGIASFVCEYASPGKATEVRVTVLRQADSQVTEVCAATYMMGNELTFLDDSICTGTSSGNQVNLTIQGLRAMDTGLYICKVEVMYPPPYLDNEKSNGTIIHVKGKHLCPS
notes: mature numbering, not counted on the entries
As to B1, the “% B7 binding activity” value in assay [1] is less than 0.1%.

B2: CD7 expressed on transfected COS cells (receptor, UniProt P09564 26-240, looked up)
chain: AQEVQQSPHCTTVPVGASVNITCSTSGGLRGIYLRQLGPQPQDIIYYEDGVVPTTDRRFRGRIDFSGSQDNLTITMHRLQLSDTGTYTCQAITEVNVYGSGTLVLVTEEQSQGWHRCSDAPPRASALPAPPTGSALPDPQTASALPDPPAASALPAALAVISFLLGLGLGVACVLARTQIKKLCSWRDKNSAACVVYEDMSHSRCNTLSSPNQYQ
notes: whole, on cells; Control transfectant; also called CD7-transfected COS cells
With B2, the binding result in assay [2] is given as “no binding (tested: 10 µg/ml (from the text))”.

B3: CTLA4/CD28Ig hybrid fusion protein HS6 (Fc fusion, not shown: a dimerising Fc or GST)
chain: MHVAQPAVVLASSRGIASFVCEYSYNLFSREVRVTVLRQADSQVTEVCAATYMMGNELTFLDDSICTGTSSGNQVNLTIQGLRAMDTGLYICKVELMYPPPYYLGIGNGTQIYVIDPEPCPDSD
notes: as for B1
For B3, in assay [1], the “% B7 binding activity” value came out at 20%.

B4: CTLA4/CD28Ig hybrid fusion protein HS4-A (Fc fusion, not shown: a dimerising Fc or GST)
chain: NKILVKQSPMLVAYDNAYNLSCKYSYNLFSREFRASLHKGLDSAVEVCVVYGNYSQQLQVYSKTGFNCDGKLGNESVTFYLQNLYVNQTDIYFCKIELMYPPPYYLGIGNGTQIHVKGKHLCPS
notes: as for B1
Regarding B4, in assay [1], the “% B7 binding activity” value stood at 2%. Moreover, the “% of wild type binding” value in assay [3] was approximately 2%.

B5: CTLA4/CD28Ig hybrid fusion protein HS4 (Fc fusion, not shown: a dimerising Fc or GST)
chain: NKILVKQSPMLVAYDNAYNLSCKYSYNLFSREFRASLHKGLDSAVEVCVVYGNYSQQLQVYSKTGFNCDGKLGNESVTFYLQNLYVNQTDIYFCKIELMYPPPYYLGIGNGTQIYVIDPEPCPDSD
notes: as for B1
As for B5, the “% B7 binding activity” value in assay [1] was found to be 16%. Also, in assay [3], the “fold less binding than wild type CTLA4Ig” value was approximately 5 fold and the “increase in binding relative to CD28Ig” value is ~2.5 orders of magnitude.

B6: CTLA4/CD28Ig hybrid fusion protein HS2 (Fc fusion, not shown: a dimerising Fc or GST)
chain: MHVAQPAVVLASSRGIASFVCKYSYNLFSREFRASLHKGLDSAVEVCVVYGNYSQQLQVYSKTGFNCDGKLGNESVTFYLQNLYVNQTDIYFCKIELMYPPPYYLGIGNGTQIYVIDPEPCPDSD
notes: as for B1
With B6, the “% B7 binding activity” value in assay [1] was determined as 27%.

For the molecule B7, the binding result in assay [4] is given as “no binding (tested: 10 µg/ml (from the text))”.

B8: CTLA4/CD28Ig hybrid fusion protein HS1 (Fc fusion, not shown: a dimerising Fc or GST)
chain: NKILVKQSPMLVAYDNAYNLSCKYASPGKATEVRVTVLRQADSQVTEVCAATYMMGNELTFLDDSICTGTSSGNQVNLTIQGLRAMDTGLYICKVEVMYPPPYLDNEKSNGTIIHVKGKHLCPS
notes: as for B1
Consider B8, for which the “% B7 binding activity” value in assay [1] is less than 0.1%.

(Values after US7105166 (Bristol-Myers Squibb, dated 2006).)
